# Test results from the domain aggregation screens of Martell et al. (2025).
# Assay: soluble fraction after stress (log2 fold change); higher = more stays soluble; pooled small domains, quantitative proteomics
# Conditions: stress: 75 degC
# 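Note: 20 min heating vs room temperature control held 20 min.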
row,Sequence,soluble fraction (log2)
1,HMSTSIADNSSITYKVRKGDSLASIAKRHGVNINDVMRWNSVITKASQIQPGDMLTLYVRDS,0.148
2,HMSTTALLEKMVRYIRTLPVISQVVLSLHYYRGMELREIASELDITESRASQLHTTAVLGIRDLLSSY,-3.11
3,HMSTTGIVKWFNEEKGFGFITQDQGGADVFVHYRAIASEGFKTLAEGQKVSFEVEQGQKGLQAANVQA,0.333
4,HMSTTHLTASVIKDKVNVRSEADSQNGAIIDKARTGERLLVTDYGNKWTGIVLPDGKRGYIMTEYLQF,-0.114
5,HMSTTSYTQFMEDAKAGKIARVDIKGREITVTPTEGSRYVITSPGDLWMVDDLRKDGVQVYGPP,0.0558
6,HMSTTYLNEGDRITLTDSVNIRTSMSETADRVGLAYQGDVVTVIMSYAEGWTKVSWNGQTGYAKTEYL,-1.52
7,HMSTVIENVFKNFEVYEIKKGDTFYNIEKRFGVNRQELLVLNPELKEGLKLGMVLKIKEIIP,-3.02
8,HMSTYTETETAYLKAYSAAGVDGKISDSERGILNMTAEALGITVERTTELEAMFNLTVEEEA,-0.0838
9,HMSVDIWTGAQTGNIEAVKQHLADGVDVNSKSDIGRTALDVAIAFKQPLITDLLRKHGGKTRDELKAAE,≥ 1.04
10,HMSVEVADITRAYYEGVGFEWWIRSVRLDPNELIVDNDDEGKLYRVPFEINGEEVTFGDPVEVKIRYE,-0.995
11,HMSVFGDNVARLRAEHGMSQRALAERLEITNGTVAAWESRDTLPDYDRIRQIAEIFDVPIPQLFAKYIP,-1.54
12,HMSVISVETAKSKALAHAGLTASKVTFIENKLEWDDGRQVYDIEFYTSDYKEYDYTIDAVSGQVLEFDY,-1.67
13,HMSVKLMEVKGASTVVSRQVREAVSIVFPTSSMRLDLVALKARIEGVDAVKRADVYLRNGILEIQIDER,-2.11
14,HMSVKLYPNPTRSVTTFATDVDKWYLYDNQGKLVSEGNTKTIDVTAFPVGIYFVKTIKGNNSTFVKLIV,-2.14
15,HMSVLNLQTDIPKKYTDVLGTSVKGRLNTLVHNVIINSVDRPVIQMSEEVHEAMQGLRIFMFENVYRNPV,0.187
16,HMSVLSEQIKEQLMEDIFHKKYKAGDRIVESALARELGVSQASVREALRSLIAMGFLENEPFKGITVR,-0.000514
17,HMSVNAPMPGKIVNVLVSEGQKVNSGDVLLILEAMKMQNEIAATQAGTVKAINVAAGQSVKVGDALVN,-0.0534
18,HMSVPQENKDLLGRSIEIFYAGKTVEAKVTDTGALAPLGRALDLSPATWRAFGASSISDWGVRGVFYRFVA,0.212
19,HMSVSTGTITGSVVNLREEPNTSSKVLDKLPKDTVVYVLSASGEWYNVSYGDKTGWVYGEYLA,-0.737
20,HMSVTSEIGAKIKYFRKSKHFSLQEMADLLYKSKSTLSKYENGQISIDIETLYAIAKVLGVHVEQLLYSEP,-5.12
21,HMSVTSIEGRVVYDENANKIGIAKQVGIDSTQSMVLVLTKNDGTEGSISWNNIKKIGEIILLGN,-0.908
22,HMSWAGRRSLAALEARYRDETGISNLKIKHNGVLGYHIEVPSKSADKLMAPDSGFTHRQTLAGAVR,0.228
23,HMSYDAINGYEPSDLRGSLTLEQTASMLNLPLTDVYARLGLPANYPSGATLKDGAADMGMGLSDFKHQLF,-0.121
24,HMSYLDTLPGRRVAAQGAITGDAGTLAVDGDTWSARVEPGAPDVAPGDEVTVLRIDGATLVVRPLP,0.0276

row,Sequence,soluble fraction (log2)
1,HMSYPFSEDALKEKIREYLKHNRSINRKVLEAEFHIRKQTALNWLKKLEKSGFLIKEGSRNAPVYFLAE,-1.83
2,HMSYQADEIKEKLIDILQNQKTGLSGLEISERIGINRITMTKYLQVFAAEGFIKQKNIGNVIIWFIEDGTE,-1.05
3,HMSYTYPVARLNHIKGKWYVLVSVPAHLRHLFPNQRDLRRSTGTDDESLAKRKQHALAQEIYDLFD,-0.653
4,HMTAFEPYLVKVMASVLNIRKGPGTSYAITGQIKDKGTYTIVAESGSWGKLKSGAGWISLSYTSKAGKA,-1.82
5,HMTAFSEQLIKLRKQKGLSQEQLGAAVGVTRQTVSKWELGDTTPELGKLVQLSDYFQLSIDELVGH,-0.703
6,HMTAGTTALNKLQQGMSTQQVQAALGTPSDRTVKESGVELWKYYYPYENMLLYLKFRDGHLVSFGTN,-0.594
7,HMTAKQDLDSIYRHLVATRKSIAENPKMVSSIDDPQALIKMLDYAIQYFYTDKRDEALAVLEKNEEQLNFR,-0.347
8,HMTALTTEDLERRFYAKTYEGESAQKRLARLEISVFGELRQGRPESDRLHDLNNAVLEKERAALNAGAVG,0.063
9,HMTAMQYVTIKDIADALGISKSSVSRALAGDVHNVSAQTIERVRAKALEMGYLRNNAAVNLR,-0.413
10,HMTANDKRNALYRKIEVGRRQLPAMDEVAFRQLLAAEFGVESRKDMSVGQLSRLVNILAEKGAVF,-0.741
11,HMTANTLDLTYSQFLENVKNGSVNDVTIRGNNVSGNFSDGRKFKTYAVNDPTLVEKLTKMGVNISAAPL,0.405
12,HMTAPELSVGDYLEYRGKEYKVESLDMDGFITLTDTALEDAPRLISRVTFLTDEFIRSGEYMVIT,-0.811
13,HMTAQGDSSDAVQRAITEILRHEDPSHPFSDQQLVIKLRTMDISVSRRTVTKYRKLLHIPSSTHRK,-3.12
14,HMTARYQQVEDYIVRRIQDGSWPPGHRLPSEHELVQQFGMSRMTVNRALRDLMQKGRIVRVAGVGSFVAQD,-1.98
15,HMTATSKKAAWDEVNKIFPTDYERSAAESERAGYAIFRSTAEGVNAWISDLGDRLEINLPDGKTVNIWIEE,-0.0996
16,HMTATVPDSEAGIRLDVYAAALLGVSRAGAQKYIESGAVRVNGLPAPKNRRLESGDVIEAVLPDPE,0.194
17,HMTAVAAEQQAQDAYRQTAANNLNEIQAKYKLPDSESDDFFTFAYERGFTQEDFIDIGLVDKIMGDYV,0.19
18,HMTAVNEHELMNQFKLSLGYANGDDPQTKLSTDEKNDFMRFKEWATAMTKDSKMGKDPDYLKKLAVQWTLK,0.278
19,HMTAYEGLPVTLIIDGRVFQQNLQKMNLSVEWLRLELKKFGVTNLKEVLFASLDTEGKLFYQLKT,-0.792
20,HMTDEYYSYIGKTGTTITVLRPAGIAEVEGERLNVVSEGEFIRKGAAILVKEVEGARILVEEVN,-0.58
21,HMTDFESYTVRVTATNLNIRKGAGTNFHSAGYIKPGVYTIVEEADGKGATRWGKLKSGMGWISLDYAKK,-1.04
22,HMTDGYAMRLERLNSLEEYVLNKGTVSLEDLAERFGVSINTIRRDLNELISRGQIKKVYGGVSSLHD,-0.252
23,HMTDIDATSIERAVAKRRHFFLSNIQDLTMKMARRLIEKDLGLAPKHLDAAPFKTRITELVDAVIALGD,-0.393
24,HMTDIKYLIADGNDIKHWDTASSSYVKVSELPLTSDKFKIYGDDIYHKERTGIIAASPILKIWSPSAE,0.384

row,Sequence,soluble fraction (log2)
1,HMTDKLIAYSVDGILNVITSEAQSVKVYAIDGRLVRILQLGEGRNEVSGLAKGIYIVDNRKVAV,-2.71
2,HMTDLNQIGERIKGLRDALGYSPEKMASILEQKVDDYLAYEEGTKDISLSVLQRIEKEFDIDLSTLLFGT,-0.333
3,HMTDRKRDAIVQAAIGEFREHGFNGTSMDRVAAAADVSKRTVYNHFPSKEELFEAILLLMWE,-1.93
4,HMTDSISLTLNGDPRPFRAGATVADLVRDIGLDPAKVAVERNLEIVPRSTLENVHLADGDVLEIVHFV,0.0689
5,HMTDTIALRSVIAESGLKYKALAEIMGLSPYTLQMKIDNESEFKASEIDALANALGMDMQQRDSIFF,-0.536
6,HMTDVIADMLTRIRNAASSKHQTVDIPSSNLKKEIAKILLEEGYIRDFIEIDDKKQGIIRITL,-0.692
7,HMTDYREILRLLSLGLSRTQIADSLNVSRTTVIHTLQRAVAQELDWQTAEGMSDRELVAKLFPV,-3.95
8,HMTEAVYMPALQNKTLEEAQRIVEQYDLELEYTYEANAQVEEGRILSQTPQMGVLVERGEKVQAVVSLG,1.01
9,HMTEDELLAQFEEILDGYVGKPGGLIPALQTAQKLFGYLPKRVLQLISMKLDIPYSEVTGVVSFYSFFTTV,0.28
10,HMTEEEEFEKGFEILVNLSHFNRFSVYKEDEYVIVRIADYDFNEYFKVKKSDVGRIAEFLNENIT,-2.61
11,HMTEELLNQRKETMLALLNDPTYVPMKLKELAMLLNLSRDQRDELREVMESLEQDGKVILTKRGKYKIP,-0.261
12,HMTEELQDMESRIIEAAKRVFVRKGYEATKMSDIALEVGLGRTALHYYFRTKEMLFDAIFGRLMGV,-0.702
13,HMTEEPISDGIKKLVEEWENIEGNLIMIFHGIQKHYGYVPRNVAKYVSEAIDVPLTRIYEILTFYNYFTM,0.261
14,HMTEEYAVLWRVARQTLKPEAFDVLWMKYREQLSIAEIAGIMNRSETSVKVMLHRARKNLGTALESS,-1.75
15,HMTEKIEWYKEVLELEPNSKVFFPLARMLAEEQRFDEAVAVLEHGLERHGEFLEARLFFIELLHET,-3.16
16,HMTEKQYIYSIGDRVNIGTDEFEIVNINEKEVSIADVTFPMLVKQISYEEFDRKVKENPFNDHLII,-0.112
17,HMTEKSTRSVPQEHEGKRLDVAAALLFPVYSRSELARRIDAGYLLLNGKGSTPKTKVHELDLIELLEV,-0.601
18,HMTELKKTAVDTWVKDLGTEQALAKLDTLAVVKLRRLAREYKAFGIAGRAISKADKGMLLAEFRAYYEN,-2.08
19,HMTETSKLTDAKQLLESILSSGEVSYKDIISAAEEYEIGKRTLMSAKALLSIESIKKTDGWYWTLPH,-0.368
20,HMTEVPSLSSLKIGDLIFYRNNKGAIAHSAIITSFYNGRPFISQHTFNALNITYVKDWASKMHFIKIW,0.0528
21,HMTEWDDATVKDAVEYFMSVNGRVPTVTDFKKENGLPSHPVIKQRYKINLHEWLNKNFPTYY,-1.3
22,HMTFEPVYDENSRILILGTFPSVKSREQQFYYGHPQNRFWKLLAALTGWKVPKTISEKKELLLQNGIA,-0.208
